Earlier results, collected in patent publication US8450118B2, “Method for detecting binding interactions between membrane proteins and analytes in a homogenous assay” (Molecular Sensing, Inc., priority 2009, dated 2013).

Target: T1, mouse B1 receptor (Mus musculus, UniProt Q61125)
T1 sequence (Q61125 1-334): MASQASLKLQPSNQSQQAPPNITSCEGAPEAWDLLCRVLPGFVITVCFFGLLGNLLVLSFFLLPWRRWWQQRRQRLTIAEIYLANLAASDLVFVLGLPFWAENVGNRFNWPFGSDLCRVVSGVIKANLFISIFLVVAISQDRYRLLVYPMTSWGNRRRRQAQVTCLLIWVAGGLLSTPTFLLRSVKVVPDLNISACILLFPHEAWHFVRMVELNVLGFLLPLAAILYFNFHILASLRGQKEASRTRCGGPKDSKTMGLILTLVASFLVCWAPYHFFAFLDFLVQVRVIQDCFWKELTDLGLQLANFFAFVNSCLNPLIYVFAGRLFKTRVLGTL

fold higher affinity for BK(1-8) compared to Lys-BK(1-8): 2-3 fold
Substance: BK(1-8): peptide generated by removal of the C-terminal arginine of bradykinin by carboxypeptidases; selective ligand at the B1 receptor (RPPGFSPF; Bradykinin; UniProt P01042 381-388, looked up, fragment)
